The text below walks through data of publication PMC10382582 (Cell Discovery, 2023).

In the experiment the target is biotinylated SARS-CoV-2 prototype RBD (SARS-CoV-2 (prototype), UniProt P0DTC2, biotin (biotinylated; site not stated)). The experiment is described as follows: BLI. Conditions: both partners purified.

B1: pan-sarbecovirus mAb S2H97 (antibody, V domains shown)
VH: QVRLVQSGAEVKKSGESLKISCKGSGYSFTSYWIGWVRQMPGKGLEWMGIIYPGDSDTRYSPSFQGQVTISADKSISTVYLQWSSLKASDTAMYYCARQWSHYTYDYYYWGQGTLVTISS
VL: QSVLTQPASVSGSPGQSITISCTGISSDVGGYNSVSWYQQHPGKAPKLMIYDVTNRPSGVSNRFSGSKSGNTASLTISGLQAEDEADYYCSSYTSSSTPPYVFGTGTKVSVL
On to B1, for which the binding result is “binds”.
